Measured values from US11584938B2, “Plant EPSPS mutant containing L195P and S247G mutations and encoding gene and use thereof” (GEVOTO LLC, priority 2017, dated 2023).
“And” between values parts separate entries of the source, which are not always exact repeats. Equal values may be shown once.

System: transgenic rice plants
Assay: glyphosate resistance of the EPSPS mutant in transgenic rice plants sprayed with Roundup 41% ammonium glyphosate
Format: in vivo, rice (Nipponbare)
Method in brief: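 EPSPS mutant genes were cloned into pGVP1 and introduced into Nipponbare rice embryo-derived calluses via Agrobacterium EHA105 (OD 0.2, 10 min infection, 2–3 days co-culture at 25 °C in the dark). Calluses went through recovery, two 14-day screening rounds at 30 °C, two differentiation rounds and rooting to regenerate transgenic plants.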

[1] = 1× dosage 1060 g/hectare glyphosate sprayed, recorded on 10th day
[2] = 2× dosage 2120 g/hectare sprayed to plants surviving 1×, recorded 10 days later
[3] = 5× dosage 5300 g/hectare sprayed to plants surviving 2×, recorded 10 days later
[4] = 20× dosage 21200 g/hectare sprayed to plants surviving 5×, recorded 10 days later

B1: R6: rice EPSPS mutant, SEQ ID NO: 40, mutations S267(247)G, L214(195)P and P116(101)S (protein)
chain: MASNAAAAAAKAEEIVLQPIREISGAVQLPGSKSLSNRILLLSALSEGTTVVDNLLNSEDVHYMLEALKALGLSVEADKVAKRAVVVGCGGKFPVEKDAKEEVQLFLGNAGTAMRSLTAAVTAAGGNATYVLDGVPRMRERPIGDLVVGLKQLGADVDCFLGTECPPVRVKGIGGLPGGKVKLSGSISSQYLSALLMAAPLALGDVEIEIIDKPISIPYVEMTLRLMERFGVKAEHSDSWDRFYIKGGQKYKSPGNAYVEGDASSAGYFLAGAAITGGTVTVQGCGTTSLQGDVKFAEVLEMMGAKVTWTDTSVTVTGPPREPYGKKHLKAVDVNMNKMPDVAMTLAVVALFADGPTAIRDVASWRVKETERMVAIRTELTKLGASVEEGPDYCIITPPEKLNITAIDTYDDHRMAMAFSLAACADVPVTIRDPGCTRKTFPNYFDVLSTFVRN
%++&+++ (percentage of plant having medium and high glyphosate resistance to the total number of plants observed) [1]: 70.0% | number of plants denoted by + (low glyphosate resistance) [1]: 7 | number of plants denoted by ++ (medium glyphosate resistance) [1]: 3 | number of plants denoted by +++ (high glyphosate resistance) [1]: 18 | number of plants denoted by − (no glyphosate resistance) [1]: 2 | glyphosate resistance / survival of the rice transformed by the EPSPS, in words (1× glyphosate dosage): had relatively high resistance to glyphosate | number of plants denoted by + (low glyphosate resistance) [2]: 3 | number of plants denoted by ++ (medium glyphosate resistance) [2]: 1 | number of plants denoted by +++ (high glyphosate resistance) [2]: 18 | number of plants denoted by − (no glyphosate resistance) [2]: 8 | glyphosate resistance / survival of the rice transformed by the EPSPS, in words (2× glyphosate dosage): had relatively high resistance to glyphosate | &++&+++ (percentage of plant having medium and high glyphosate resistance to the total number of plants observed) [3]: 63.3% | number of plants denoted by + (low glyphosate resistance) [3]: 0 | number of plants denoted by ++ (medium glyphosate resistance) [3]: 6 | number of plants denoted by +++ (high glyphosate resistance) [3]: 13 | number of plants denoted by − (no glyphosate resistance) [3]: 11 | &++&+++ (percentage of plant having medium and high glyphosate resistance to the total number of plants observed) [4]: 63.38% and 63.3% | number of plants denoted by + (low glyphosate resistance) [4]: 0 | number of plants denoted by ++ (medium glyphosate resistance) [4]: 11 | number of plants denoted by +++ (high glyphosate resistance) [4]: 8 | number of plants denoted by − (no glyphosate resistance) [4]: 11
